Source: patent US20200297818A1 (ZEALAND PHARMA A S, published 2020)
*1 amine or outer side, *2 acyl side, *3 side chain or, on linkers, in order; H or OH if unused. Where no end group is shown, it is not given here. Side-chain parts run from the residue outwards. [ ]: non-standard residue; d: D form. The star is where a group is joined. C20 diacid = O=C(O)CCCCCCCCCCCCCCCCCCC(=O)*; C18 diacid = O=C(O)CCCCCCCCCCCCCCCCC(=O)*; γGlu = O=C(O)[C@H](CCC(=O)[*:2])N[*:1]; AEEA = NCCOCCOCC(=O)O; Aib = CC(C)(N)C(=O)O

T1: human GLP-2 receptor (hGLP2-R) (human, UniProt O95838 1-553)
T1 sequence (looked up): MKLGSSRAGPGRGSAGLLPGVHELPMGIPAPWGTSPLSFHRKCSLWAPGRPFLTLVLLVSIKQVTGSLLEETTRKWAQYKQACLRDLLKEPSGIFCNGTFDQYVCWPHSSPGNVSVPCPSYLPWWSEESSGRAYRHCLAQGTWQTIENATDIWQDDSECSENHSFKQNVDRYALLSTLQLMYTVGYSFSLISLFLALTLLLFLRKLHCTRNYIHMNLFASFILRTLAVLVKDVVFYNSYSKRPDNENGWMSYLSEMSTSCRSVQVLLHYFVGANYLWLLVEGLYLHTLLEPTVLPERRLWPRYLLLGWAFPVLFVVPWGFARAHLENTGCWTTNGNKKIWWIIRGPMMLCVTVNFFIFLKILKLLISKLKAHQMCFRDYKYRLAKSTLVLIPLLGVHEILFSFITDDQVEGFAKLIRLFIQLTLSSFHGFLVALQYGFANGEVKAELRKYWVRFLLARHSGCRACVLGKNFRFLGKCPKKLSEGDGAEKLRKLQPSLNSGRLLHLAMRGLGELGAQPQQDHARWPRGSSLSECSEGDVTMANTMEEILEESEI


Columns and labels:
[1] = target: human glucagon-like peptide 1 receptor (GLP-1 R) (human, UniProt P43220 24-463); test: cell-based or functional assay
[2] = target: T1, human GLP-2 receptor (hGLP2-R); test: cell-based or functional assay

Binder	EC50 GLP-1 (nM); cAMP response [1] [nM]	EC50 GLP-2 (nM); cAMP response [2] [nM]
H-H[Aib]EGSFTSELATILDEQAAK([AEEA-AEEA-Lys-Glu-Lys-γGlu-C20 diacid])DFIAWLIEHKITD-OH [Compound 66]	0.65	0.18
HXEGTFTSELATILDXEAARDFIAWLIEHKITD (HELM PEPTIDE1{H.[Aib].E.G.T.F.T.S.E.L.A.T.I.L.D.K.E.A.A.R.D.F.I.A.W.L.I.E.H.K.I.T.D}|PEPTIDE2{[O=C(O)CCCCCCCCCCCCCCCCC(=O)[*:2]].[gGlu]}$PEPTIDE1,PEPTIDE2,16:R3-2:R2$$$V2.0; SMILES CC[C@H](C)[C@H](NC(=O)[C@H](Cc1ccccc1)NC(=O)[C@H](CC(=O)O)NC(=O)[C@H](CCCNC(=N)N)NC(=O)[C@H](C)NC(=O)[C@H](C)NC(=O)[C@H](CCC(=O)O)NC(=O)[C@H](CCCCNC(=O)CC[C@H](NC(=O)CCCCCCCCCCCCCCCCC(=O)O)C(=O)O)NC(=O)[C@H](CC(=O)O)NC(=O)[C@H](CC(C)C)NC(=O)[C@@H](NC(=O)[C@@H](NC(=O)[C@H](C)NC(=O)[C@H](CC(C)C)NC(=O)[C@H](CCC(=O)O)NC(=O)[C@H](CO)NC(=O)[C@@H](NC(=O)[C@H](Cc1ccccc1)NC(=O)[C@@H](NC(=O)CNC(=O)[C@H](CCC(=O)O)NC(=O)C(C)(C)NC(=O)[C@@H](N)Cc1c[nH]cn1)[C@@H](C)O)[C@@H](C)O)[C@@H](C)O)[C@@H](C)CC)C(=O)N[C@@H](C)C(=O)N[C@@H](Cc1c[nH]c2ccccc12)C(=O)N[C@@H](CC(C)C)C(=O)N[C@H](C(=O)N[C@@H](CCC(=O)O)C(=O)N[C@@H](Cc1c[nH]cn1)C(=O)N[C@@H](CCCCN)C(=O)N[C@H](C(=O)N[C@H](C(=O)N[C@@H](CC(=O)O)C(=O)O)[C@@H](C)O)[C@@H](C)CC)[C@@H](C)CC) [Compound 3]	0.042	0.33
HXEGSFTSELATILDXKAARDFIAWLIEHKITD (HELM PEPTIDE1{H.[Aib].E.G.S.F.T.S.E.L.A.T.I.L.D.K.K.A.A.R.D.F.I.A.W.L.I.E.H.K.I.T.D}|PEPTIDE2{[O=C(O)CCCCCCCCCCCCCCCCC(=O)[*:2]].[gGlu]}$PEPTIDE1,PEPTIDE2,16:R3-2:R2$$$V2.0; SMILES CC[C@H](C)[C@H](NC(=O)[C@H](Cc1ccccc1)NC(=O)[C@H](CC(=O)O)NC(=O)[C@H](CCCNC(=N)N)NC(=O)[C@H](C)NC(=O)[C@H](C)NC(=O)[C@H](CCCCN)NC(=O)[C@H](CCCCNC(=O)CC[C@H](NC(=O)CCCCCCCCCCCCCCCCC(=O)O)C(=O)O)NC(=O)[C@H](CC(=O)O)NC(=O)[C@H](CC(C)C)NC(=O)[C@@H](NC(=O)[C@@H](NC(=O)[C@H](C)NC(=O)[C@H](CC(C)C)NC(=O)[C@H](CCC(=O)O)NC(=O)[C@H](CO)NC(=O)[C@@H](NC(=O)[C@H](Cc1ccccc1)NC(=O)[C@H](CO)NC(=O)CNC(=O)[C@H](CCC(=O)O)NC(=O)C(C)(C)NC(=O)[C@@H](N)Cc1c[nH]cn1)[C@@H](C)O)[C@@H](C)O)[C@@H](C)CC)C(=O)N[C@@H](C)C(=O)N[C@@H](Cc1c[nH]c2ccccc12)C(=O)N[C@@H](CC(C)C)C(=O)N[C@H](C(=O)N[C@@H](CCC(=O)O)C(=O)N[C@@H](Cc1c[nH]cn1)C(=O)N[C@@H](CCCCN)C(=O)N[C@H](C(=O)N[C@H](C(=O)N[C@@H](CC(=O)O)C(=O)O)[C@@H](C)O)[C@@H](C)CC)[C@@H](C)CC) [Compound 5]	0.17	0.063
H-H[Aib]EGSFTSELATILDAKAAK([AEEA-Lys-Glu-Lys-γGlu-C20 diacid])DFIAWLIEHKITD-OH [Compound 68]	0.084	0.1
H-H[Aib]EGSFTSELATILEGK([AEEA-Lys-Glu-Lys-γGlu-C20 diacid])AARDFIAWLIEHKITD-OH [Compound 61]	0.13	0.2
H-H[Aib]EGSFTSELATILDAK([AEEA-Lys-Glu-Lys-γGlu-C20 diacid])AARDFIAWLIEHKITD-OH [Compound 62]	0.27	0.15
H-H[Aib]EGSFTSELATILDK([AEEA-AEEA-Lys-Glu-Lys-γGlu-C20 diacid])QAARDFIAWLIEHKITD-OH [Compound 60]	0.097	0.074
H-H[Aib]EGTFTSELATILDEQAAK([AEEA-AEEA-Lys-Glu-Lys-γGlu-C20 diacid])DFIAWLIEHKITD-OH [Compound 67]	0.16	0.22
H-H[Aib]EGSFTSELATILDEQAAK([AEEA-Lys-Glu-Lys-γGlu-C20 diacid])DFIAWLIEHKITD-OH [Compound 64]	0.49	0.2
H-H[Aib]EGSFTSELATILDAK([AEEA-AEEA-Lys-Glu-Lys-γGlu-C20 diacid])AARDFIAWLIEHKITD-OH [Compound 63]	0.31	0.17
H[Aib]EGTFSSELATILDK([γGlu-C18 diacid])KAARDFIAWLIEHKITD-OH [Compound 4]	0.66	0.087
H[Aib]EGTFTSELATILDK([γGlu-C18 diacid])KAARDFIAWLIEHKITD-OH [Compound 6]	0.058	0.12
H-H[Aib]EGTFTSELATILDEQAAK([AEEA-Lys-Glu-Lys-γGlu-C20 diacid])DFIAWLIEHKITD-OH [Compound 65]	0.13	0.35
